Drawing on the NTF2 design screens of Basanta et al. (2020), this text covers protease stability score for 18 sequences.

The data set in a line: protease stability score; higher = more stable; yeast display proteolysis, trypsin and chymotrypsin.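 Note: relative to predicted unfolded state with 0 unfolded-like and 1 meaning tenfold more protease.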
Sequence “SEEEEQSRIAIELVKEVHDTGDEHLLKRLMDPNAKVDIGDKTHHGREIFSHLVHRWFHTLGVDHVKIHDLDFQGDFMIIHMVEVIGDKHVHVHIYTLKVNGRWYIRHLRVERR” yielded a protease stability score of 0.967.

Turning to “SEEEEQSRKIFRLLYKVIETGDEDIFTKLFDPHARLIYNGKEYIGWEEAVQVLRHIRIDREELSVVRINNVNGQVHIHSVSRMDGEINGVEHHTRVELNFIVIKINGRWVIHTWEIRID”, the protease stability score was 2.35.

The sequence “SEEEEQVERAIKLTEELIDTGNWKEISKLADPNARLNVNGREFHGREMVSENIKRFFEELGVDHIEVKHIRIQGNKVEVDTELRVGDKYHDLHLLFLKVNGQWLLKEVTVR” gave a protease stability score of 1.22.

Sequence “SEEEEQVERFLRLWLHALRTGDEDTHERLMDPNTRIQIGNFIFHGRERALKVVHHLIRQIDHIHDFDIHDVRVQGNKVHVDVRLNTHFDGRTIVLNLHIHIHKVDGRWLFTSLSRE” showed a protease stability score of 1.23.

“SEEEEQVKEFIERWITMVKTGDEDFARKMADPNVRIEIGDKILHGRENMEHYMRRVIDEWRITHIHVNDSKVYGEYIVNEVHIHVRQGDKHHTINWELHVKKVNGRWRLQNVHFG” gave a protease stability score of 2.24.

On to “SEEEEQVKELIKWLIEVWLTGNEEFIRDLADPHVRMHIEQGDKKVDSHGRETLLKDLERYRREIRFEYIEIHDIRIYNGRAEVDGRLFGLINGQRMELNVILIFVVVDGKIREIAVHIR”, for which the protease stability score is 0.26.

As to “SEEEEQVTESFEHFFRARYTGDEHTLLRMMDPNVRVIVDGKDIHGWEEVIRYLVHIRIKRSELHDREIRVVNGRAIVHLDVHTDREVDGVRIETRIILILYAEKIDGRWVFKEVKIEVR”, the protease stability score amounted to 1.29.

In the case of “SEEEERAEELVRLWEHDLKTGNEHLLRELMDPNTRLVVNGRHTHGREHAVNILLQFVEEWRIESVHLHRWRVIGDKIDLDIHIHGRINGVEHHIKSILVLVKINGKWLIHTIVIH”, the protease stability score amounted to 1.02.

As to “SEEEERLRENLERWHRALYTGDEEHLFNLADPHARFEIIVDGRDVRIHGRENYLRWVEEFRKELGISRVHTELKSEHVINGRNDEDGLVHINGRSLRVHFHLDVVDGRTKKIHIYVR”, the protease stability score was found to be 0.779.

Consider “SEEEERLRRFFEEFIKWHVTGDEEHLERLMDPNAKFIVNGVESHGWENTSRHLKELRIHELNIRRVEIVNGRIHISGLAKGEFNGRHRETTVHIHIVVIDGRVKEMSIEVR”, for which the protease stability score was found to be 2.48.

Sequence “SEEEERLRTIAEVLLHLLLTGDEEHLERLMDPHARYEQGDKHAIGREEVSHLFRRLLEHMRTREIHLHRWHSVNGVIYLDTRVIMEVNGRRIDTDTKVVVVVVDGKVRSMRNQFN” had a protease stability score of 0.113.

As for “SEEEERMETLTRLLDHAWHTGDFDFLSKLLDPNTRVVQGEFHHHGRHALRKILHDLNRIMGVDHSDIEDREIQGDKIHIHVRIEVNGRVVDSHINIIVVDGRIKTVEMTIR”, the protease stability score is -0.216.

“SEEEERSERSLKHLLKTELTGNEEEFWRLADPNAKIEVIIDGVRISDHGREAIIRLWRFMGFDHLIFRHIHVHIQGDKMDVHIQGESRIGDKEMRTTIFLHVIKINGRWINHTLIIEQK” registered a protease stability score of 1.24.

The sequence “SEEEESAKIAIKVMLHSLHTGDEHTMSRLMDPNAREIINGRHNHGREVILEFLRRLGFTKVEIKDFRLTHMSVQGEFVFVHGTTNGEFNGVDTNVDLEIVVLKVDGRWTIQSVFYR” gave a protease stability score of 1.67.

“SEEEESAKWFNHVRHEAERTGDEETLLRLLDPSVKSTYGDKTSHGRHEMEEIMKRLGVSRVHLDIRHVEVQGDKVNVDGLVEFDGQEMRVILIVLKIDGRWIAEHVIVH” gave a protease stability score of -0.118.

The sequence “SEEEESARRAWEKILHVLETGDERDSRRLMDPDTKIEQGDKTEHGMEKIAKMITEWRFHDVKLTDMRVIGDKVEIDGTVRGEFDGREYKIHVFILVVKINGRWVIHKTVLG” had a protease stability score of 1.06.

In turn, “SEEEESERKVLHKFTEAIRTGDEHTLENLIDPNVKIDAENRSHHGMEDWLKWLMELRRRADHIDFRIHSIHTQGDKLHVHSEIIVVQGDKHIHIEISMIINKVNGRWHIHHIELR” showed a protease stability score of 1.29.

Take “SEEEESIHEAQKVFLKIIMTGDWEEIARRLDPDVRLHIGNKKVHGREEAIEFFRKFLEEIRIHDEELKEFSSIDGRVHIRGEIDGTINGVRDRVEVHNVIWKFNGRWFISFREER”: the protease stability score came out at 1.36.
